Laboratory results taken from paper PMC11580892.

Molecular target: T1, TRPV2-MBP (wild-type TRPV2 with an N-terminal maltose binding protein tag), Q9WUD2
T1 chain: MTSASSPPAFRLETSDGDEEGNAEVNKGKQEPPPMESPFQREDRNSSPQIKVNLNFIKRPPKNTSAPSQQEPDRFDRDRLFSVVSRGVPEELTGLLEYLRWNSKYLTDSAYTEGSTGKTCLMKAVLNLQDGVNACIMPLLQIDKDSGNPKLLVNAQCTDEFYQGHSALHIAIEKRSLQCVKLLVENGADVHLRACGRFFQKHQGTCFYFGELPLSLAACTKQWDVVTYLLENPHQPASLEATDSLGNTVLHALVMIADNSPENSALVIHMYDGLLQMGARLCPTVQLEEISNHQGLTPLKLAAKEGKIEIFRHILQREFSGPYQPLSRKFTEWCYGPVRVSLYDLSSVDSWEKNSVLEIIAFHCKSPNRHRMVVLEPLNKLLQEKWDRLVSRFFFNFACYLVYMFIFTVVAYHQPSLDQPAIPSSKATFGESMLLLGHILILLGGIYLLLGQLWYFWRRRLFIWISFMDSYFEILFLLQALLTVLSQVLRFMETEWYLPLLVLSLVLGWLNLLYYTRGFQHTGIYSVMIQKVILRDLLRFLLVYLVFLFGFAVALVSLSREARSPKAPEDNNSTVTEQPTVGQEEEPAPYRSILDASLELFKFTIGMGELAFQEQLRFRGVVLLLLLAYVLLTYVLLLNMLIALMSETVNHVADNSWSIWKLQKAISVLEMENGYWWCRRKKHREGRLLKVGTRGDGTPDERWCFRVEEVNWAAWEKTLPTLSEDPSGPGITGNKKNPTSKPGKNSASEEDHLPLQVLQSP
Assay: SEC
Details: remark: other sources report otherwise

stoichiometry N: 4
B1: TRPV2-MBP (wild-type TRPV2 with an N-terminal maltose binding protein tag), Q9WUD2 1-761 (natural protein)
chain: MTSASSPPAFRLETSDGDEEGNAEVNKGKQEPPPMESPFQREDRNSSPQIKVNLNFIKRPPKNTSAPSQQEPDRFDRDRLFSVVSRGVPEELTGLLEYLRWNSKYLTDSAYTEGSTGKTCLMKAVLNLQDGVNACIMPLLQIDKDSGNPKLLVNAQCTDEFYQGHSALHIAIEKRSLQCVKLLVENGADVHLRACGRFFQKHQGTCFYFGELPLSLAACTKQWDVVTYLLENPHQPASLEATDSLGNTVLHALVMIADNSPENSALVIHMYDGLLQMGARLCPTVQLEEISNHQGLTPLKLAAKEGKIEIFRHILQREFSGPYQPLSRKFTEWCYGPVRVSLYDLSSVDSWEKNSVLEIIAFHCKSPNRHRMVVLEPLNKLLQEKWDRLVSRFFFNFACYLVYMFIFTVVAYHQPSLDQPAIPSSKATFGESMLLLGHILILLGGIYLLLGQLWYFWRRRLFIWISFMDSYFEILFLLQALLTVLSQVLRFMETEWYLPLLVLSLVLGWLNLLYYTRGFQHTGIYSVMIQKVILRDLLRFLLVYLVFLFGFAVALVSLSREARSPKAPEDNNSTVTEQPTVGQEEEPAPYRSILDASLELFKFTIGMGELAFQEQLRFRGVVLLLLLAYVLLTYVLLLNMLIALMSETVNHVADNSWSIWKLQKAISVLEMENGYWWCRRKKHREGRLLKVGTRGDGTPDERWCFRVEEVNWAAWEKTLPTLSEDPSGPGITGNKKNPTSKPGKNSASEEDHLPLQVLQSP
